According to patent publication US20260265412A1:

Key:
[1] = target: MASP3 in Factor D depleted human plasma (human) (UniProt P48740); assay: cell-based or functional assay
human MASP3-His (human) = human MASP3-His (human) (UniProt P48740); assay: cell-based or functional assay
Sequence of human MASP3-His (human) (P48740 other isoform, or with tags, fused parts or gaps): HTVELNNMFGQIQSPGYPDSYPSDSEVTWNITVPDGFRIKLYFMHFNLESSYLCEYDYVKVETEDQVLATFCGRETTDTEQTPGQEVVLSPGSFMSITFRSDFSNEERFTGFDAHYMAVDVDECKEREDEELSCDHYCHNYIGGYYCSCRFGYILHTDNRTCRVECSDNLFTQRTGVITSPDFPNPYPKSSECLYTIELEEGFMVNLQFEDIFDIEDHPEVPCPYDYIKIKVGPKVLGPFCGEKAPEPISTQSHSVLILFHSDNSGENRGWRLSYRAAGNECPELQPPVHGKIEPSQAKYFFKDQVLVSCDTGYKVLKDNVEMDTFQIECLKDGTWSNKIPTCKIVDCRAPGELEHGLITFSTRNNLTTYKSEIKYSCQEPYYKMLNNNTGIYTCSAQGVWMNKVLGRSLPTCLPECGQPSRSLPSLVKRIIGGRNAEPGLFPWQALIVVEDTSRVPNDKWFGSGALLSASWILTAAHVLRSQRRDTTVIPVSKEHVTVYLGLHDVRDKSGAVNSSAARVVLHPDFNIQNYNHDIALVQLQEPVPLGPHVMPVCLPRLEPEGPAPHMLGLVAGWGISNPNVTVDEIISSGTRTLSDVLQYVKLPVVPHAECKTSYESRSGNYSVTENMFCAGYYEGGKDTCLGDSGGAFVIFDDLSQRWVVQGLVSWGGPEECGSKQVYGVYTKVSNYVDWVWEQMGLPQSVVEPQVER

Sequence of MASP3 in Factor D depleted human plasma (human) (P48740 other isoform, or with tags, fused parts or gaps): as above

IC50 of inhibition of MASP3 enzymatic activity (cleavage of fluorescent tripeptide Boc-Val-Pro-Arg-AMC) (human MASP3-His (human)): 200 nM
Substance: OMS906 (antibody)
Inhibit Hemolysis IC50 (alternative pathway, rabbit or guinea pig red blood cells) [1]: 13 nM | Inhibit hemolysis IC50 (alternative pathway) [1]: 17.1 nM
